Like-named read-outs stand apart in the source and are kept apart here.
Test system: peptide substrates
Format: biochemical

Measured: HPLC Assay Conv

B1: VPr: Vibrio proteolyticus aminopeptidase (protein)
chain: MPPITQQATVTAWLPQVDASQITGTISSLESFTNRFYTTTSGAQASDWIASEWQALSASLPNASVKQVSHSGYNQKSVVMTITGSEAPDEWIVIGGHLDSTIGSHTNEQSVAPGADDDASGIAAVTEVIRVLSENNFQPKRSIAFMAYAAEEVGLRGSQDLANQYKSEGKNVVSALQLDMTNYKGSAQDVVFITDYTDSNFTQYLTQLMDEYLPSLTYGFDTCGYACSDHASWHNAGYPAAMPFESKFNDYNPRIHTTQDTLANSDPTGSHAKKFTQLGLAYAIEMGSATGDTPTPGNQ
6.80%: substrate […]{LYSN3}NH2 (SEQ ID NO: 107), 1200 μM Peptide, 800 pM enzyme, 10 mM Mg(OAc)2, 50 mM MOPS pH 8.5, RT/0.5 hr
50%: substrate YYPYYP{LYSN3}NH2 (SEQ ID NO: 92), 1 mM peptide, 2 mM enzyme, 2.5 mM ZnCl2, 25 mM Tris pH 8.0, 30° C./1 hr | substrate […]1 (SEQ ID NO: 11), 600 μM Peptide, 0.8 μM enzyme, 10 mM Mg(OAc)2, 50 mM MOPS pH 8, 60 mM KOAc, RT/0.5 hr | substrate […]{LYSN3}NH2 (SEQ ID NO: 107), 1200 μM Peptide, 0.08 μM enzyme, 10 mM Mg(OAc)2, 50 mM MOPS pH 5.5, RT/0.5 hr
5%: substrate […]1 (SEQ ID NO: 11), 600 μM Peptide, 0.08 μM enzyme, 10 mM 5Mg(OAc)2, 0 mM MOPS pH 8, 60 mM KOAc, RT/0.5 hr | substrate […]1 (SEQ ID NO: 13), 300 μM Peptide, 8 μM enzyme, RB2 + Mg, RT/0.5 hr
70%: substrate CCPFQQ (SEQ ID NO: 144), 1 mM Peptide, 1 μM enzyme, 10 mM Mg(OAc)2, 50 mM MOPS pH 8, 60 mM KOAc, RT/0.5 hr | substrate […]1 (SEQ ID NO: 13), 300 μM Peptide, 8 μM enzyme, 10 mM Mg(OAc)2, 50 mM MOPS pH 8, 60 mM KOAc, RT/0.5 hr
56%: substrate QP15 […]{LYSN3}NH2 (SEQ ID NO: 107), 1200 μM Peptide, 0.008 μM enzyme, 10 mM Mg(OAc)2, 50 mM MOPS pH 6.5, RT/0.5 hr | substrate YYPFQQ (SEQ ID NO: 122), 1 mM Peptide, 1 μM enzyme, 10 mM Mg(OAc)2, 50 mM MOPS pH 8, 60 mM KOAc, RT/0.5 hr
66%: substrate QQPFQQ (SEQ ID NO: 132), 1 mM Peptide, 1 μM enzyme, 10 mM Mg(OAc)2, 50 mM MOPS pH 8, 60 mM KOAc, RT/0.5 hr
30%: substrate […]1 (SEQ ID NO: 13), 300 μM Peptide, 8 μM enzyme, 50/50 MOPS Mg buffer/RB1, RT/0.5 hr
82%: substrate WWPFQQ (SEQ ID NO: 146), 1 mM Peptide, 1 μM enzyme, 10 mM Mg(OAc)2, 50 mM MOPS pH 8, 60 mM KOAc, RT/0.5 hr
15%: substrate NNPFQQ (SEQ ID NO: 130), 1 mM Peptide, 1 μM enzyme, 10 mM Mg(OAc)2, 50 mM MOPS pH 8, 60 mM KOAc, RT/0.5 hr
12%: substrate HHPFQQ (SEQ ID NO: 154), 1 mM Peptide, 1 μM enzyme, 10 mM Mg(OAc)2, 50 mM MOPS pH 8, 60 mM KOAc, RT/0.5 hr
79%: substrate RRPFQQ (SEQ ID NO: 116), 1 mM Peptide, 1 μM enzyme, 10 mM Mg(OAc)2, 50 mM MOPS pH 8, 60 mM KOAc, RT/0.5 hr
>90%: substrate YYMYYM{LYSN3}NH2 (SEQ ID NO: 103), 1 mM peptide, 2 mM enzyme, 2.5 mM ZnCl2, 25 mM Tris pH 8.0, 30° C./1 hr
0%: substrate DDPFQQ (SEQ ID NO: 126), 1 mM Peptide, 1 uM enzyme, 10 mM Mg(OAc)2, 50 mM MOPS pH 8, 60 mM KOAc, RT/0.5 hr | substrate EEPFQQ (SEQ ID NO: 128), 1 mM Peptide, 1 uM enzyme, 10 mM Mg(OAc)2, 50 mM MOPS pH 8, 60 mM KOAc, RT/0.5 hr | substrate PPPFQQ (SEQ ID NO: 150), 1 mM Peptide, 1 μM enzyme, 10 mM Mg(OAc)2, 50 mM MOPS pH 8, 60 mM KOAc, RT/0.5 hr
1.40%: substrate QP15 […]{LYSN3}NH2 (SEQ ID NO: 107), 1200 μM Peptide, 0.008 μM enzyme, 10 mM Mg(OAc)2, 50 mM MOPS pH 5.5, RT/0.5 hr
8%: substrate GGPFQQ (SEQ ID NO: 152), 1 mM Peptide, 1 μM enzyme, 10 mM Mg(OAc)2, 50 mM MOPS pH 8, 60 mM KOAc, RT/0.5 hr
2.70%: substrate […]{LYSN3}NH2 (SEQ ID NO: 107), 1200 μM Peptide, 800 pM enzyme, 10 mM Mg(OAc)2, 50 mM MOPS pH 7.5, RT/0.5 hr
48%: substrate SSPFQQ (SEQ ID NO: 140), 1 mM Peptide, 1 μM enzyme, 10 mM Mg(OAc)2, 50 mM MOPS pH 8, 60 mM KOAc, RT/0.5 hr
32%: substrate KKPFQQ (SEQ ID NO: 120), 1 mM Peptide, 1 μM enzyme, 10 mM Mg(OAc)2, 50 mM MOPS pH 8, 60 mM KOAc, RT/0.5 hr
100%: substrate AAMAAM{LYSN3}NH2 (SEQ ID NO: 74), 1 mM peptide, 2 mM enzyme, 2.5 mM ZnCl2, 25 mM Tris pH 8.0, 30° C./1 hr | substrate AAPAAP{LYSN3}NH2 (SEQ ID NO: 98), 1 mM peptide, 2 mM enzyme, 2.5 mM ZnCl2, 25 mM Tris pH 8.0, 30° C./1 hr | substrate AAPFQQ (SEQ ID NO: 118), 1 mM Peptide, 1 μM enzyme, 10 mM Mg(OAc)2, 50 mM MOPS pH 8, 60 mM KOAc, RT/0.5 hr | substrate FFPFFP{LYSN3}NH2 (SEQ ID NO: 94), 1 mM peptide, 2 mM enzyme, 2.5 mM ZnCl2, 25 mM Tris pH 8.0, 30° C./1 hr | substrate FFPFQQ (SEQ ID NO: 124), 1 mM Peptide, 1 μM enzyme, 10 mM Mg(OAc)2, 50 mM MOPS pH 8, 60 mM KOAc, RT/0.5 hr | substrate IIPFQQ (SEQ ID NO: 136), 1 mM Peptide, 1 μM enzyme, 10 mM Mg(OAc)2, 50 mM MOPS pH 8, 60 mM KOAc, RT/0.5 hr | substrate KKMKKM{LYSN3}NH2 (SEQ ID NO: 89), 1 mM peptide, 2 mM enzyme, 2.5 mM ZnCl2, 25 mM Tris pH 8.0, 30° C./1 hr | substrate KKPKKP{LYSN3}NH2 (SEQ ID NO: 100), 1 mM peptide, 2 mM enzyme, 2.5 mM ZnCl2, 25 mM Tris pH 8.0, 30° C./1 hr | substrate LLPFQQ (SEQ ID NO: 138), 1 mM Peptide, 1 μM enzyme, 10 mM Mg(OAc)2, 50 mM MOPS pH 8, 60 mM KOAc, RT/0.5 hr | substrate MMPFQQ (SEQ ID NO: 148), 1 mM Peptide, 1 μM enzyme, 10 mM Mg(OAc)2, 50 mM MOPS pH 8, 60 mM KOAc, RT/0.5 hr | substrate QP5-Atto649N ([…]{LYSN3}NH2) (SEQ ID NO: 106), 37 μM Peptide, 8 μM Enzyme, 2.5 mM ZnCl2, 25 mM Tris pH 8.0, 37° C./0.5 hr | substrate RRPRRP{LYSN3}NH2 (SEQ ID NO: 96), 1 mM peptide, 2 mM enzyme, 2.5 mM ZnCl2, 25 mM Tris pH 8.0, 30° C./1 hr | substrate TTPFQQ (SEQ ID NO: 142), 1 mM Peptide, 1 μM enzyme, 10 mM Mg(OAc)2, 50 mM MOPS pH 8, 60 mM KOAc, RT/0.5 hr | substrate VVPFQQ (SEQ ID NO: 134), 1 mM Peptide, 1 μM enzyme, 10 mM Mg(OAc)2, 50 mM MOPS pH 8, 60 mM KOAc, RT/0.5 hr | substrate […]1 (SEQ ID NO: 11), 600 μM Peptide, 8 μM enzyme, 10 mM Mg(OAc)2, 50 mM MOPS pH 8, 60 mM KOAc, RT/0.5 hr | substrate […]1 (SEQ ID NO: 11), 600 μM Peptide, 8 μM enzyme, 10 mM Mg(OAc)2, 50 mM MOPS pH 8, RT/0.5 hr | substrate […]1 (SEQ ID NO: 13), 300 μM Peptide, 8 μM enzyme, 10 mM Mg(OAc)2, 50 mM MOPS pH 8, 60 mM KOAc, 37° C./2 hr | substrate […]1 (SEQ ID NO: 13), 300 μM Peptide, 8 μM enzyme, 10 mM Mg(OAc)2, 50 mM MOPS pH 8, 60 mM KOAc, RT/2 hr | substrate […]1 (SEQ ID NO: 13), 300 μM Peptide, 8 μM enzyme, 10 mM Mg(OAc)2, 50 mM MOPS pH 8, 0.2% Tween20, RT/0.5 hr | substrate […]1 (SEQ ID NO: 13), 300 μM Peptide, 8 μM enzyme, 10 mM Mg(OAc)2, 50 mM MOPS pH 8, RT/0.5 hr | substrate […]1 (SEQ ID NO: 13), 300 μM Peptide, 8 μM enzyme, RB4, RT/0.5 hr | substrate […]1 (SEQ ID NO: 13), 600 μM Peptide, 8 μM enzyme, 10 mM Mg(OAc)2, 50 mM MOPS pH 8, RT/0.5 hr | substrate […]{LYSN3}NH2 (SEQ ID NO: 107), 200 μM Peptide, 4 μM enzyme, 10 mM MgCl2, 50 mM MOPS pH 8.0, 37° C./0.5 hr | substrate […]{LYSN3}NH2 (SEQ ID NO: 107), 200 μM Peptide, 4 μM enzyme, 10 mM MgCl2, 50 mM MOPS pH 8.0, 37° C./1 hr | substrate […]{LYSN3}NH2 (SEQ ID NO: 107), 200 μM Peptide, 8 μM enzyme, 10 mM MgCl2, 50 mM MOPS pH 5.0, RT/0.5 hr | substrate […]{LYSN3}NH2 (SEQ ID NO: 107), 200 μM Peptide, 8 μM enzyme, 10 mM MgCl2, 50 mM MOPS pH 5.0, RT/1 hr | substrate […]{LYSN3}NH2 (SEQ ID NO: 107), 300 μM Peptide, 4 μM enzyme, 10 mM MgCl2, 50 mM MOPS pH 8.0, 37° C./0.5 hr | substrate […]{LYSN3}NH2 (SEQ ID NO: 107), 400 μM Peptide, 8 μM enzyme, 50 mM HEPES pH 8.0, 300 mM NaCl, 1 mM DTT, 5% Glycerol, 32 mM PCA, 37° C./1 hr | substrate […]{LYSN3}NH2 (SEQ ID NO: 107), 600 μM Peptide, 0.8 μM enzyme, 10 mM Mg(OAc)2, 50 mM MOPS pH 5.5, RT/0.5 hr | substrate […]{LYSN3}NH2 (SEQ ID NO: 107), 600 μM Peptide, 0.8 μM enzyme, 10 mM Mg(OAc)2, 50 mM MOPS pH 6.5, RT/0.5 hr | substrate […]{LYSN3}NH2 (SEQ ID NO: 107), 600 μM Peptide, 0.8 μM enzyme, 10 mM Mg(OAc)2, 50 mM MOPS pH 7.5, RT/0.5 hr | substrate […]{LYSN3}NH2 (SEQ ID NO: 107), 600 μM Peptide, 0.8 μM enzyme, 10 mM Mg(OAc)2, 50 mM MOPS pH 8.5, RT/0.5 hr | substrate […]{LYSN3}NH2 (SEQ ID NO: 107), 1200 μM Peptide, 0.008 μM enzyme, 10 mM Mg(OAc)2, 50 mM MOPS pH 7.5, RT/0.5 hr | substrate […]{LYSN3}NH2 (SEQ ID NO: 107), 1200 μM Peptide, 0.008 μM enzyme, 10 mM Mg(OAc)2, 50 mM MOPS pH 8.5, RT/0.5 hr | substrate […]{LYSN3}NH2 (SEQ ID NO: 107), 1200 μM Peptide, 0.08 μM enzyme, 10 mM Mg(OAc)2, 50 mM MOPS pH 6.5, RT/0.5 hr | substrate […]{LYSN3}NH2 (SEQ ID NO: 107), 1200 μM Peptide, 0.08 μM enzyme, 10 mM Mg(OAc)2, 50 mM MOPS pH 7.5, RT/0.5 hr | substrate […]{LYSN3}NH2 (SEQ ID NO: 109), 300 μM Peptide, 4 μM enzyme, 10 mM MgCl2, 50 mM MOPS pH 8.0, 37° C./0.5 hr | substrate […]{LYSN3}NH2 (SEQ ID NO: X), 1200 μM Peptide, 0.08 μM enzyme, 10 mM Mg(OAc)2, 50 mM MOPS pH 8.5, RT/0.5 hr

Source: patent US12618845B2, “Methods and compositions for protein sequencing” (Quantum-Si Incorporated, priority 2018, dated 2026)
